The source of these data is the DeepSol protein solubility set.

This data set is described as follows: soluble on expression in E. coli; label from the status in PepcDB or PDB records.
Take “MPKSNPVTPNKQPSEDWNELLTEFRGKGGRALQKTFIRKLWAVQEDIIANANPSTLRCIFFAPALLICPEGIKLSAEILPKIGVGNGLILLEKLILKFNLTDTECQRYGEVFVTAWRNAYQEANFDLTEELETDVISVMCQHALYAHRPTCTKFQNVIAAFAHAKKLDKSVDEMVTRLLNGCLYRALDAPNYIVQSSAAEVFFNFYPLIGEDTEDMDRIMENQHRYMMDLLRSDVISIRSEATKHVLKAISEFWLLIPKNIVKELMGYIIDTVAKDTVVSVRVAVFEGLNEMAFVPACLTAFEYGLKCAVDPALQDKSERVRLAAYQIISRLKNHKFISVFDIITRDDAIAKLDLENVETCRRQLIPIMHICLPISKSLDEAYYRPRVNYMLGKSRLALLSYFRLLGPMKIIDASQASKLIEMFITWAYRYLRKKDGPPLPETAEGYKKARAYLECALILYMSCKGMLMSDGDGTSKAKCDQIFGKVVKEIFEKYANTPILGTATAISSVIPKDYLKSIANDVLARLEDDDVPPEAVEPFLESAIHFNPDSVFDSFDSGLNVLVNLYGTKQSKKKRRELEDPEDVLIMTLNRLKYLLQSHSTSNLIAMKDEYRTKVLDLLKKIDLIREGIEIRLAKEEGQEHTLSDDVLLSILEFRFILPFFAATNGSEDAADRNQTIESMKNLLLWFEKNISSQMATFGEHNQDFLIQLTSTFLNCVNVSLSAYDFKTRPVEFEDEEDNENRDPREENDAAKDQATVAEVISRIVKSFCNSSTPFEIFRPALRVGTTLCDESYSEVHHEMALLLRFIPKWMNKQCDLMEDDEENIFKNHREIVESLRQFHKRVSETDYWDEDSAKRMMHHFMLFSIVSASSKNDDEAYDDPRDEDYKPPHFISLALIKFILKEKSLTEDIIEEISTNYIPEDSKYFTAEEGELKTDEKLSKLAALSQLLRILERYSKFHGKLIKEAIDKCTTRVLDCFANASDLNTVAHHILNSLSSLLDVQLPDENRL”: the “soluble on expression in E. coli” value is “not soluble”.
In the case of “MPKSNRRIVRARDSKGRFLPGKKAKSVASKSRSRSRSRSVVSRKTTRTNSLTRRRSSTKAPSSARQSRSRSRSRSRSRSKSRSTSSRRSRSRSARRVSFKRGRPASFAMKSPEEKTAAKKTAAKIILRVD”, the “soluble on expression in E. coli” value is on record as “not soluble”.
Regarding “MPLEASELKPTAGPLEASELKPTAGPLEASELKPTAGPLEASELKPTAGPLEASELKPTAGPLEASELKPTAGPLEASELKPTAGMKKNSYLLSCLAIAVSSACHAEVLTYPDPLGSSQSDFGGTGLLQMPNARIAPEGEFSVNYRDNDQYRFYSTSVALFPWLEGTIRYTDVRTRKYSQWEDFSGDQSYKDKSFDFKLRLWEEGYWLPQVAFGKRDIAGTGLFDGEYLVASKQAGPFDFTLGMAWGYAGNAGNITNPFCRVSDKYCHRAESHDAGDISFSDIFRGPASIFGGIEYQTPWNPLRLKLEYDGNNYQNDFAGKLPQASHFNVGAVYRAASWADLNLSYERGNTLMFGFTLRTNFNDLRPALRDTPKPAYQPAPESEGLQYTTVANQLTALKYNAGFDAPEIQLRDKTLYMSGQQYKYRDSREAVDRANRILVNNLPQGVEKISVTQKREHMAMVTTETDVASLRKQLAGTAPGQSEPLQQQRVEAEDLSAFGRGYRIREDRFSYSFNPTLSQSLGGPEDFYMFQLGLMSSARYWFTDHLLLDGGIFTNIYNNYDKFKSSLLPADSTLPRVRTHIRDYVRNDVYLNNLQANYFADLGNGFYGQVYGGYLETMYAGVGSELLYRPLDACWALGVDVNYVKQRDWDNMMRFTDYSTPTGFVTAYWNPPTLNGVLMKLSVGQYLAKDKGATIDVAKRFDSGVAVGVWAAISNVSKDDYGEGGFSKGFYISIPFDLMTIGPNRNRAVVSWTPLTRDGGQMLSRKYQLYPMTAEREVPVGQLEHHHHHH”, the “soluble on expression in E. coli” value is “not soluble”.
“MPLRHWGMARGSKPVGDGAQPMAAMGGLKVLLHWAGPGGGEPWVTFSESSLTAEEVCIHIAHKVGITPPCFNLFALFDAQAQVWLPPNHILEIPRDASLMLYFRIRFYFRNWHGMNPREPAVYRCGPPGTEASSDQTAQGMQLLDPASFEYLFEQGKHEFVNDVASLWELSTEEEIHHFKNESLGMAFLHLCHLALRHGIPLEEVAKKTSFKDCIPRSFRRHIRQHSALTRLRLRNVFRRFLRDFQPGRLSQQMVMVKYLATLERLAPRFGTERVPVCHLRLLAQAEGEPCYIRDSGVAPTDPGPESAAGPPTHEVLVTGTGGIQWWPVEEEVNKEEGSSGSSGRNPQASLFGKKAKAHKAVGQPADRPREPLWAYFCDFRDITHVVLKEHCVSIHRQDNKCLELSLPSRAAALSFVSLVDGYFRLTADSSHYLCHEVAPPRLVMSIRDGIHGPLLEPFVQAKLRPEDGLYLIHWSTSHPYRLILTVAQRSQAPDGMQSLRLRKFPIEQQDGAFVLEGWGRSFPSVRELGAALQGCLLRAGDDCFSLRRCCLPQPGETSNLIIMRGARASPRTLNLSQLSFHRVDQKEITQLSHLGQGTRTNVYEGRLRVEGSGDPEEGKMDDEDPLVPGRDRGQELRVVLKVLDPSHHDIALAFYETASLMSQVSHTHLAFVHGVCVRGPENIMVTEYVEHGPLDVWLRRERGHVPMAWKMVVAQQLASALSYLENKNLVHGNVCGRNILLARLGLAEGTSPFIKLSDPGVGLGALSREERVERIPWLAPECLPGGANSLSTAMDKWGFGATLLEICFDGEAPLQSRSPSEKEHFYQRQHRLPEPSCPQLATLTSQCLTYEPTQRPSFRTILRDLTRLQPHNLADVLTVNPDSPASDPTVFHKRYLKKIRDLGEGHFGKVSLYCYDPTNDGTGEMVAVKALKADCGPQHRSGWKQEIDILRTLYHEHIIKYKGCCEDQGEKSLQLVMEYVPLGSLRDYLPRHSIGLAQLLLFAQQICEGMAYLHSQHYIHRDLAARNVLLDNDRLVKIGDFGLAKAVPEGHEYYRVREDGDSPVFWYAPECLKEYKFYYASDVWSFGVTLYELLTHCDSSQSPPTKFLELIGIAQGQMTVLRLTELLERGERLPRPDKCPCEVYHLMKNCWETEASFRPTFENLIPILKTVHEKYQGQAPSVFSVC”: the “soluble on expression in E. coli” value is “soluble”.
As for “MPLTLTDRYRGSLLGLACGDALGTSVEFKPRGSFPPVTDLLGGGPFNLKAGQWTDDTSMALCLGESLLRKDGFDPADQMGRYLNWWQWGYLSATGECFDIGMTVRQALADYQEHGQPLAGSSDPQTAGNGSLMRLAPVVLFHYPDLAQVREFAGASSRTTHGAAEAIECCQLLAGLIAKALDGASKQQLQRLDAQGFRESKVAALAQGNYLDKTRDQIRGNGYCVDSLEAALWCFQHSDSYAEAVLAAANLGDDADTTAAIVGQLAGAFYGAQGIPPHWLAKLHMGEEIQAMADDLLAAARRRAPARPLHGSCLCKAVQYRVDRLDMPIGHCHCQTCRKAHAAAFASTAGVMREHFQWTQGQERLSTYESSPGKLRHFCSVCGSHLLAERPGQPHVILRVATLDDDPGQTPQVHIWTSHDVPWLADEALQRWPEWQPSRGLEHHHHHH”, the “soluble on expression in E. coli” value is recorded as “not soluble”.
As to “MPLTPADVHNVAFSKPPIGKRGYNEDEVDQFLDLVEDTLAEIQEENDDLRQQIEELQSSPRAEGSKPAAAPAAVSSLDETKLRKEIEAKVAAEYRAKLADAQEATERAQAELKMAREEADSAKAAAKKAEEAARAAASAATKAQPVAAVAPVGTDGGSATADTHLQAAKVLSMAQEMADRLTAEADSNSKSMLSEARAAAEKQVSDAEAKAKTTLADARQKAEKQLADADARSKALVSDAEKKSAQTLSDANTRAEAQVRQAEEKANALQADAERKHTEIMATVKQQQNALESRISELRTFEREYRTRLKTLLQTQLDELESRGTSAPEDKNV”, the “soluble on expression in E. coli” value is on record as “not soluble”.
In the case of “MPNAGELASLMEENAMPKVVVRNFAISLDGYGAGPDQSLQNPLGVKGEELHQWAFKTRTFHRMFGKEGGSTGTDENFSEKSFENIGAWVLGRNMFGPVRGAWPDESWKGWWGEEPPYHVPVFVLTHHARPSFTMKGGTEFHFVTDGIEAALDRALTAANGKDVRIGGGVSTIRQYMAAGMIDELHLALAPVFLGKGEQLFEGLDLPALGYRCTGTVAGEGATHLIIEKV”, the “soluble on expression in E. coli” value was “not soluble”.
With “MPNILYKIDNQYPYFTKNEKKIAQFILNYPHKVVNMTSQEIANQLETSSTSIIRLSKKVTPGGFNELKTRLSKFLPKEVTQYNVELVDNESTISLKNKLHSRSKAAL” the entry was “soluble”; with “MPNPPAKEDTWAFGPIGSPFPDNPVKALGQQNMYVALWYKNGRPMHGRAWNNGGVIECSFPYNKSELTGVKDLGGQIQVLQYKGNHLSLGYWYNWIKYSDRFDKMDKGAEMLRCGDSFPILWSERPGGALLGYADNKTEIARFSHDGKVDEVSGSALANMLIIARELKGGPPYCECEECKSEPPKPIVRVTLNEWADFRCGDPWPTVGTPVRALGRSLDTLPGENPDQYVALWYQSGEPVMGRIWNDGGKIAACFGWGGHEYRQKIGSIQILYELPEAIRGFDYDWKPFPEAAQFGAKEWIPVHVDHHKGNISPAVLIVDGKEILGKADIRNERATIGYGGTEKVLVGPAVHSCMVLCRKAKPGCTID”, “soluble”.
